Data from the supplement of paper PMC10567573.
± gives the standard deviation.

Experiment: protein stability index of a GFP-peptide fusion (GPS, HEK-293T) (PSI 1-6); higher = more stable
Conditions: c terminus: a fixed tail appended
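Also: 24-mer peptide tiles fused after GFP, lentivirally expressed, FACS-sorted into six equal bins by GFP/DsRed ratio, decoded by Illumina sequencing, PSI is the read-weighted mean bin number.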

Sequence	protein stability index (treatment: DMSO)	protein stability index (treatment: MLN4924 1 uM, 8 h)
AAGVFSNPAVRTAAANAAAGAAEN [SCAMP3]	5.03 ± 0.1	5.06 ± 0.23
WVRSVSFSHDGLHVASLADDKMVR [WSB1]	2.66 ± 0.4	3.54 ± 0.45
LQSLRPHDEDIKTTNVKSASRQKT [ZNF396]	5.14 ± 0.089	5.04 ± 0.28
FEQILSLPELKANPFKERICRVFS [CIB1]	2.25 ± 0.2	2.38 ± 0.16
VILAVSYMSQVLEKEMKAQEQRLG [GMPPB]	2.27 ± 0.42	2.08 ± 0.17
SLNGPLSTSRHVMAPVMAHVDPEE [ADAMTS4]	4.5 ± 0.25	4.49 ± 0.25
VAVESMEPNNIVVLLQTSPYHVDS [TCF25]	2.28 ± 0.38	2.13 ± 0.4
MSPLQAMSSYTVAGRNVLRWDLSP [NLN]	2.06 ± 0.31	2.55 ± 0.42
GAKDSELASQNKPLWQCYLGRFND [PDS5B]	2.51 ± 0.37	3.25 ± 0.3
LREIVHKPGPITLTVAKCWDPSPR [DVL3]	2.8 ± 0.28	2.93 ± 0.32
SLVKELLRMCSHGEGKINYYNFVR [EFHC1]	2.31 ± 0.32	2.46 ± 0.8
FLSGLAFRVFHCTQYVRHSSDPFY [TPH1]	2.67 ± 0.27	2.99 ± 0.4
NSPGAYRSHPDNAIPIKSWFSDPS [CTDNEP1]	3.37 ± 0.23	3.4 ± 0.12
KYDPHTGHWTNVTPMATKRSGAGV [KLHL12]	3.69 ± 0.47	3.78 ± 0.17
LDNCVEVGRIANTYNLTEVDKYVN [KLHL13]	4.12 ± 0.17	3.94 ± 0.23
ASLDNGGCALTTFSVLEGEKNNHR [SOAT1]	4.2 ± 0.31	4.34 ± 0.09
TPRRVFANAHTYHINSISVNSDYE [PPP2R2B]	3.35 ± 0.34	3.12 ± 0.42
MAGAPDERRRGPAAGEQLQQQHVS [ATP23]	5.058 ± 0.01	4.57 ± 0.25
LQASDRYRDLAGGTGRSAKEQVLR [FCHSD1]	4.18 ± 0.24	4.29 ± 0.11
VNVSDRGGRTALHHAALNGHVEMV [ANKRD44]	3.39 ± 0.43	3.24 ± 0.093
CLKKFNARRKLKGAILTTMLATRN [CAMK2A]	3.21 ± 0.15	3.32 ± 0.34
KEQRKQMKGRGQLEKPPAPNQAMV [TBC1D10A]	4.95 ± 0.1	5.01 ± 0.34
VDIKPANMEELTEVITAAEFHPHH [PPP2R2B]	4.47 ± 0.34	4.42 ± 0.58

Sequence	protein stability index (treatment: DMSO)	protein stability index (treatment: MLN4924 1 uM, 8 h)
SPVLLGWVEQAYADKCVCGPSAPP [TIAF1]	2.67 ± 0.057	2.86 ± 0.28
NGRACEMNGEECAEDLRMLDASGE [IKZF1]	5.07 ± 0.51	5.36 ± 0.53
SPNYPSKYPPDRECIYIIEAAPRQ [NETO1]	2.58 ± 0.11	2.77 ± 0.31
SRQRQSRMEKGEPYMSIQPAEDPD [SMARCE1]	5.55 ± 0.11	5.57 ± 0.33
TEVITASEFHPHHCNLFVYSSSKG [PPP2R2C]	2.73 ± 0.24	2.97 ± 0.29
NGFTPLHFAAASTHGALCLELLVN [ANKRD44]	3.06 ± 0.71	2.95 ± 0.9
VNSDYETYMSADDLRINLWNFEIT [PPP2R2B]	2.19 ± 0.23	2.4 ± 0.23
IGLGHIYSGTFALIGAAAFLGGVV [CLCN6]	2.94 ± 0.19	3.27 ± 0.7
RGPPPRSGGPPPKRSAPSGPVRSS [RBMX]	4.4 ± 0.2	4.56 ± 0.086
LHYQDTDSDVPEQRDSKCKVKWTH [MYBL2]	3.77 ± 0.32	4.05 ± 0.19
YMTKPSKSLLPHLKTGNSSPGIGA [RTP4]	3.13 ± 0.13	3.22 ± 0.27
QRDSKRWSRLEEFDVFSPKQDLVP [DLC1]	3.63 ± 0.13	3.8 ± 0.21
EYLSFFDFSGLTLDGALRTFLKAF [PSD2]	2.44 ± 0.31	2.01 ± 0.34
YEFNPDFLEEAHEWNQKRARKAMR [N4BP2L1]	3.88 ± 0.2	4.19 ± 0.29
AVQKTDEGHPFKAYLELEITLSQE [RTN1]	2.24 ± 0.24	2.56 ± 0.17
EDKTFGLKNKKGAKQQKFIKAVTH [ZC3H15]	4.26 ± 0.3	4.39 ± 0.23
NVRDRDSGRNGEVSLDISPDLPFQ [PCDHGC5]	4.76 ± 0.42	4.59 ± 0.22
DETIGFEDILNDPSQSEVMGEPHL [POMP]	5.5 ± 0.15	5.46 ± 0.086
GNKQWWFGGGCDLTPTYLNQEDAI [CPOX]	3.12 ± 0.19	3.33 ± 0.23
EAGSAGHVEVARLLLENGAGINTH [ANKRD17]	4.11 ± 0.36	4.25 ± 0.26
RGLEPGKGRHHRGRGGEPRAYFMS [CHGB]	4.36 ± 0.092	4.24 ± 0.13
LEECLRLLEATCPFGENAEFPADI [NFE2L1]	3.61 ± 0.68	3.61 ± 0.23
PVSLSASQSWHTESLPVSLGPESW [BCL2L13]	3.37 ± 0.26	3.21 ± 0.11

Sequence	protein stability index (treatment: DMSO)	protein stability index (treatment: MLN4924 1 uM, 8 h)
TPLTFTKVSEGQADIMISFVRGDH [MMP1]	2.64 ± 0.28	2.65 ± 0.26
ASAQKFSSRSTVPTPAKRRSSALW [NET1]	3.41 ± 0.039	3.5 ± 0.33
GQGAMFRLPTDSHFPYDLHLRSQS [NEUROD6]	3.02 ± 0.3	3.11 ± 0.22
YSLTTSSTHKRSSLRKVKLVRPPQ [RAB40B]	3.42 ± 0.24	3.63 ± 0.32
ALLLGQGANINAQTEETQETALTL [ANKRD17]	4.17 ± 0.32	4.32 ± 0.27
AKVKGEKLDKKLKKMEQNKTAATR [ATF4]	4.88 ± 0.39	4.85 ± 0.16
PMYFFLGNLSVLDVGCISVTVPSM [OR3A1]	2.65 ± 0.52	3.06 ± 0.65
EDSNWEKSPDNEDSGDSKDIRLTL [GOLPH3L]	5.37 ± 0.16	5.37 ± 0.12
NCIGIRDFALHYCLHHVHYLATEY [GAN]	3.1 ± 0.51	3.32 ± 0.33
SFFAAQAGARKIYAVEASTMAQHA [CARM1]	2.8 ± 0.45	2.78 ± 0.69
IYQQLSRYRGLGLLASVPSNPNGN [CRY1]	2.4 ± 0.28	2.74 ± 0.29
TISFGSVSPGGVKLEISTKEVPVV [EPB41L3]	2.9 ± 0.21	3.31 ± 0.18
FMAYEQIKRLVGSDQETLRIHERL [SLC25A25]	3.08 ± 0.26	2.97 ± 0.42
KFLPSSEEDNDDAKILPSPVQGSS [DRICH1]	5.21 ± 0.25	5.47 ± 0.17
ESRRQQILREFEELHRRLDEEQQV [TRIM39]	4.87 ± 0.23	4.8 ± 0.097
SPGIGAVYLANQAKNQSDEAKEAK [RTP4]	5.28 ± 0.22	5.28 ± 0.12
MTNHQLSTTEWNDETLYQEFNGLK [CHIT1]	4.37 ± 0.4	4.56 ± 0.19
LVVLVVAVVASSVNSYYSSPAQQV [TOR1AIP2]	3.22 ± 0.11	3.21 ± 0.23
MACPYSVLISGDIKDRLKKKEDCL [FAM98B]	2.87 ± 0.071	3.49 ± 0.38
YGLKPLTPNSKYVKLNVGGSLHYT [KCTD13]	2.33 ± 0.23	2.49 ± 0.19
HYAVNSQFTMGGPAISMASPMSIP [CARM1]	2.63 ± 0.21	2.78 ± 0.24
SATCTTGVMSAYAMCVRYDGVEVD [ADAMTSL2]	2.72 ± 0.32	2.63 ± 0.17
GEKPYLSPDILEEKHCEFKQLALD [ATL3]	4.42 ± 0.25	4.92 ± 0.12

Sequence	protein stability index (treatment: DMSO)	protein stability index (treatment: MLN4924 1 uM, 8 h)
PKPCAGNQGTQITVEDLFYNIATR [MLH1]	2.85 ± 0.32	2.97 ± 0.41
LELVINYQQLCIYWTKYYDFKNPI [OAS1]	3.22 ± 0.24	3.33 ± 0.18
SEQESLLQQAQAQFRMAQEEARRN [SMG5]	5.19 ± 0.2	5.14 ± 0.31
SMPSYSSCTVTTVQPMDRLPYQHF [TBX5]	2.56 ± 0.3	2.64 ± 0.17
LRIPFPRDCGEEMQNGAGASRTST [TNXB]	4.02 ± 0.45	4.28 ± 0.79
ILTADLYSLFVGLFLFGYKFSGLY [SLC35F2]	2.45 ± 0.49	3.27 ± 0.19
GSTAITPGTPPSYSSRTPGTPGTP [MAP2]	4.87 ± 0.2	4.98 ± 0.11
YSLVLELSDSGAFRRSLHDPDGLV [APMAP]	2.28 ± 0.48	2.14 ± 0.38
SSPNLQVSSDGTLKYMEVTLRPTD [PCDHGC5]	3.84 ± 0.092	4.12 ± 0.33
KVQTVIILGKVILWILHLLLECYI [TMEM192]	2.5 ± 0.62	2.35 ± 0.26
GLQAQIASSGLTVEVDAPKSQDLA [KRT18]	4.77 ± 0.35	4.94 ± 0.47
VKKLMRTSTPPPASVINNMLAEIF [ZBED1]	2.2 ± 0.37	2.02 ± 0.21
AGNSTSGSRAGASSFSDPFFVVET [KCNA3]	3.75 ± 0.15	3.58 ± 0.27
VQIRRLEAAGESLEEEIRRKQILL [ZC2HC1C]	3.31 ± 0.37	3.45 ± 0.37
RSVSDQFYRYKMPRLIAKVEGKGN [EIF5]	3.47 ± 0.19	3.46 ± 0.21
NRERVVSLIEDLQRELEIPEQQVD [ZNF449]	5.13 ± 0.23	5.17 ± 0.16
NSHLTSVPHWINSNTLGFGTEQAP [ETS2]	3.42 ± 0.15	3.45 ± 0.21
QQFVIAGVLVEDSNNHHLMLEASE [ZBED1]	3.5 ± 0.36	3.57 ± 0.43
SLISLSNNTGKNLELKFVSSLRRQ [TENT5D]	2.34 ± 0.081	2.58 ± 0.098
AFPAAVSSMKKFCRPLLPSCTTRL [PSD2]	2.33 ± 0.27	2.32 ± 0.093
